Assay: yeast display, Sf9 membrane polyspecificity reagent, FACS + sequencing; frameworks hold sequencing errors
Summary of the method: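 Synthetic nanobody libraries on Saccharomyces cerevisiae BJ5465 were galactose-induced for 36–48 hours, stained 1 hour at 4 °C with 10% biotinylated, detergent-solubilized Sf9 membrane reagent and enriched on streptavidin microbeads. FACS then separated cells into low and high (top ~1%) gates by anti-HA (expression) and streptavidin (reagent binding) fluorescence. Genes were colony-PCR amplified, MiSeq 2 × 250 sequenced and CDR-length filtered. A clone's polyreactivity label is that of its gate of origin.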

Sequence: QVQLVESGGGLVQAGGSLRLSCAASGGIFGHNAMGWYRQAPGKERELVAAISYTGGSTYYADSVKGRFTISRDNAKNTVYLQMNSLKPEDTAVYYCNAVQRRFRYPFDYWGQGTQVTVSS
- polyreactivity (PSR sort gate): low polyreactivity

Sequence: QVQLVESGGGLVQAGGSLRLSCAASGNIFDRYAMGWYRQAPGKERELVAGITWSGGSTYYADSVKGRFTISRDNAKNTVYLQMNSLKPEDTAVYYCGQANYYWGQGSQVTVSS
- polyreactivity (PSR sort gate): low polyreactivity

Sequence: QVQLVEAGGGLVQAGGSLRLSCAASGRTFLYYDMGRYRQAPGKERELVAVITLRGGRTYYADSVKGRFTISRDNAKNTVYLQMNILKPEDTAVYYCAKDYSRGYNYWGQGTQVTVSS
- polyreactivity (PSR sort gate): high polyreactivity

Sequence: QVQLVESGGGLVQAGGSLRLSCAASGSIFWWNAKGWYRQAPGKERELVAAINWSTGRTYYADSVKGRFTISRDNAKNTVYLQMNSLKPEDTAVYYCNADSKSSYYWYLWYNYWGQGTQVTVSS
- polyreactivity (PSR sort gate): low polyreactivity

Sequence: QVQLVESGGGLVQAGGSLRLSCAASGRIFGVYAMGWYRQAPGKERELVASITWRGGSTYYADSVKGRFTISRDNAKNTVYLQMNSLKPEDTAVYYCAAAYWYAYEYWGQGTQVTVSS
- polyreactivity (PSR sort gate): high polyreactivity

Sequence: QVQLVESGGGLVQAGGSLRLSCAASGSTFYANAMGWYRQAPGKERELVAAISRSGGRTYYADSVKGRFTISRDNAKNTVFLQMNSLKPEDTAVYYCAKAYHHSEFDYWGQGTQVTVSS
- polyreactivity (PSR sort gate): high polyreactivity

Sequence: QVQLVESGGGLVQAGGSLRLSCAASGFIFYRYAMGWYRQAPGNERELVAAISRSGGSTYYADSVKGRFTISRDNAKNTVYLQMNSLKPEDTAVYYCATPGQRKLYLVNYLGQGTQVTVSS
- polyreactivity (PSR sort gate): low polyreactivity

Sequence: QVQLVESGGGLVQAGGSLRLSCAASGSIFYTYVMGWYRQAPGKERELVAAISASGVRTYYADSVKGRFTISRDNAKNTVYLQMNSLKPEDTAVYYCAARYATWYFRRGRKTSDYDYWGQGTQVTVSS
- polyreactivity (PSR sort gate): high polyreactivity

Sequence: QVQLVESGGGLVQAGGSLRLSCAASGRTFNNNAMGWYRQAPGKERELVAAITSGGSTNYADSVKGRFTISRDNAKNTVYLQMNSLKPEDTAVYYCNAGYYSRRYYFSGRLDYWGQGTQVTVSS
- polyreactivity (PSR sort gate): low polyreactivity

Sequence: QVQIVDSGGGLVQAGGSLRLTCAASAITFSTNALGWNRQAPGKERELVAAITSVTSTYYADSVKGRFTISRDNAKNTVYLLMKSLKTEYTAVYYWAARLSRWPYFYEYNYWGQGTEVTVSS
- polyreactivity (PSR sort gate): low polyreactivity

Sequence: QVQHVESGGGLVQAGGSLRLSCAASGFILPWYVMGWYRQAPGKERELVAAISGTGGSTYYADSVKGRFTISRDNAKNTVYLQMNSLKPEDTAVYYCAAGAFYAGYYWEFYYWGQGTQVTVSS
- polyreactivity (PSR sort gate): high polyreactivity

Sequence: QVKLVESGGGLVQAGGSLRLSCHASGFTFPYYAMGWYRQAPGKERELVAAISQIGDRTYYADSVKGRFTISRDNAKNTVYLQMNSLKPEDTAVYYCNGAGKVRKYGYWGQGTQVTVSS
- polyreactivity (PSR sort gate): high polyreactivity

Sequence: QVQLVESGGGLVQAGGSLRLSCAASGRTFKKKVMGWYRHAPGKERELFAAISNGGSTNYADSVKGRFTISRDNSKNTDYLQMNSLKPEDTAVYDCAAYITWGGYHTPNWGYDYWGQGTQVTVSS
- polyreactivity (PSR sort gate): low polyreactivity

Sequence: QVQLVESGGGLVQAGGSLRLSCAASGNIFVTYDMGWYRQAPGKEREMVASISWNGGSTHYADSVKGLFTISGDNAKYSVYLQMNSRKPEDTAVYYCAAEYWTSYADYRYDYWGQGTQVTVSS
- polyreactivity (PSR sort gate): low polyreactivity

Sequence: QDQHVESGVGLVQEGGSLRLSCAASGIIIDEYAMGLYRQAPGKERELVAAISSRGTNTYYADSVKGRFTISRDNAKNTVYLQMNSLKPEDTAVYYCAARRPPVTRHFGYWGQGTQVTVSS
- polyreactivity (PSR sort gate): high polyreactivity

Sequence: QVQLVASGGGFVQAGGSLRVSCAASGGTILGNAMGWDRQAPGKERELVATITARVGSTYYADSVKGRFTISRDNAKNTVYLQMNSLKPEDTAVYYCAARKVWGYTYGYPYYYWGQGTQVTVSS
- polyreactivity (PSR sort gate): high polyreactivity

Sequence: QVQLGESGGGLVQAGGILRLSCAASGSTFFYYAMGWYRQAPGKERELVATINYNGGSTSYADSVKGRFTFSRDNAKNTLYLQMISLIPEDTAVYYCAADLWVWYYKPYDYWGQGTQVTVSS
- polyreactivity (PSR sort gate): low polyreactivity

Sequence: QVQLVESGGGLVQAGGSLRLSSAASGRIFSRNTMGCYRQAPGKERELVAAIRYSGGRTYYADSVKGRFTISRDNAKNTVYLQMNCLKQEDTAVYYCAARWYGQGVSYRMDYWGQGTQVTVSS
- polyreactivity (PSR sort gate): high polyreactivity

Sequence: QVQLVESGGGLVQAGGSLRLSCAASGGIFKSYAMGWYRQAPGKERELVAAISASGGRTYYADSVKGRFTISRDNAKNTVYLQMNSLKPEDTAVYYCAAKVGYTTALNYWGQGTQVTVSS
- polyreactivity (PSR sort gate): high polyreactivity

Sequence: QVQLVQSGGGLVQAGGSLRLSCAASGSIFTSYAMGWYRQAPGKERELVAAINGSGGSTFYADSVKGRFTISRDHAKNTVYLQMNSLNPEYTAVYYCYTVGPRGTTYDDWGQGSQVTVSS
- polyreactivity (PSR sort gate): low polyreactivity

Sequence: QVQLVESGGGLVQAGGSLRLSCAASGRIFPYYAMGWYRQAPGKERELVATITWRGGITYYADSVKGRFTISRDNAKNTVYLQMNSLKPEDTAVYYCAVRKVYRSSFDYWGQGTQVTVSS
- polyreactivity (PSR sort gate): high polyreactivity

Sequence: PVQLVESGGGLVQAGGSLRLSCAASGFIFYYNTMGSYRQAPGKERELVAAINSGGSTYYADSVKGRFTISRDNAKNTVYLQMNSLKPEDTAVYYCAKRYAVSSGYYYWGQGTQVTVSS
- polyreactivity (PSR sort gate): high polyreactivity

Sequence: QVQLVESGGGLVQAGGSLRLSCADSGRIFVYYAMGWYRQAPGKERELVASISYSGASTYYADSVKGRFTISRDNAKNTVYLQMNSLKPEDTAVYYCARDVWNYWDGVFQYYSYDFDYWGQGTQVTVSS
- polyreactivity (PSR sort gate): low polyreactivity

Sequence: QVQLVESGGGLVQAGGSLRLSCASSGRIFRYNTMGWYRPAPGKERELVADITSSDSSTYYADSVKGRFTISRDNAKNTVDLQMNSLKPEETAVYYCAARDSGYGWRYSYWGQGTQVTVSA
- polyreactivity (PSR sort gate): low polyreactivity

Sequence: QVHHVESGGGLVQAGGSLRLSCAASGGTFYYNAMGWYRQAPGKERELVAAIDGSGGTTYYADSVKGRFTISRDNAKNTVYLQMNSLKPEDTAVYYCAAAGSPSVYGYGYWGQGTQVTVSS
- polyreactivity (PSR sort gate): low polyreactivity

Sequence: QVQLVESGGGLVQAGGSLRLSCAASGRIFRYYAMGWYRQAPGKEMELVAAITRGGSTNYADSVKGRFTISRDNAKNTGYLQMNSLKPEDTAVYYCATRQSWYPRWMDYWGQCTQVTVSS
- polyreactivity (PSR sort gate): high polyreactivity

Sequence: QVQLVESGGGLVQAGGSLRLSCAASGSIFFPYLMGWYRQAPGKERELVAAITYRAGSTYYADSVKGRFTISRDNAKNTVYLQMNSLKPEDTAVYYCAAVVSRSGEFGYWGQGTQVTVSS
- polyreactivity (PSR sort gate): low polyreactivity

Sequence: QVQLVESGGGLVQAGGSLRLSCAASGRTFPFYAMGWYRQAPGKERELVAVITWRGSNTYADSVKGRFTISRDNAKNTVYLQMNSLKPEDTAVYYCSATGGRYIDGYYYWGQGTQVTVSS
- polyreactivity (PSR sort gate): high polyreactivity

Sequence: QVQLVESGGGLVQAGGSLRLSCAASGSTFYTYAMGWYRQAPGKERELVARIRWSVGSTYYADSVKGRFTISRDNAKNTVYLQMNSLKPEDTAVYYCAADYYKRYKYLYDYWGQGTQVTVSS
- polyreactivity (PSR sort gate): high polyreactivity

Sequence: QVQLVESGGGLVQAGGSLRLSCAASGSIFARYTMGWYRQAPGKERELVARITSSGGSTYYADSVKGRFTISRDNAKNTVYLQMNSLKPEDTAVYYCNKAYRYYWRMEYWGQGTQVTVSS
- polyreactivity (PSR sort gate): high polyreactivity

Sequence: QVQLVESGGGLVQAGGSLRLCCAASGSTQAIYAMGWYRQAPGNERELVAAISGGGSTYADSVKGRFTISRDNAKNTVYLQMNSLKPEDTAVYYCNADGWGDSFWSNFRFDYWGQGTQVSVSS
- polyreactivity (PSR sort gate): low polyreactivity

Sequence: QVQLVESGGGLVQAGGSLRLSCAASGSIFWSYAMGWYRQAPGKERELVAAITTDGGTNYADSVKGRFTISRDNAKNTVYLQMNSLKPEDTAVYYCAARYGTSYIVRWTYYAFDYWGQGTQVTVSS
- polyreactivity (PSR sort gate): low polyreactivity

Sequence: QVQLVESGGGLVQAGGSLRLSCAASGSTFTYYAMGWYRQAPGKERELVAAISRRGGSTYYADSVKGRFTISRDNAKNTVYLQMNSLKPEDTAVYYCNARLKPLWGGRYDYWGQGTQVTVSS
- polyreactivity (PSR sort gate): high polyreactivity

Sequence: QVQLVESGGGLVQAGGSLRLTCAASGYIFYTYAMGWYRQAPGKERELVAGITGSGGSTYYADSVKGRFTISRDNAKNTVYLQMNSLKPEDTAVYYCAKDIYQIGYRRYDSWGQGTQVTVSS
- polyreactivity (PSR sort gate): low polyreactivity

Sequence: QVQLVESGGGLVQAGGSLRLSCASSGFIFPLYAMGWYRQAPGKERELVAAINWRGGTTYYADSVKGRFTISRDNAKNTVYLQINSLKPDDTAVYYCAATHWAYSRVPYDYWGQGTQVSVSS
- polyreactivity (PSR sort gate): high polyreactivity

Sequence: QVQLVESGGGLVQAGGSLRLRCADSGRTFRYNAMGWYRQAPGKERELVAGIRWSGDRTYYADSVKGRFTISHDNAKNTVYLQMNSLKPEDTAVYSCNKVYHPGYGVRATYDYWGQGTQVTVSS
- polyreactivity (PSR sort gate): high polyreactivity

Sequence: QVQLVESGGGLVQAGGSLRLSCAPSGFFFYSNTMGWYRQAPGKERELVDTISKRSGNTYYADSVKGRFTISRDFAKNTVYLQMNSLKPEDTSVYYCAADFWVRHKMWYPYTSIQAYNYWGQGTQVTVSS
- polyreactivity (PSR sort gate): high polyreactivity

Sequence: QVQLVESGGVLVQAGGSLRLSCAASGSTFSYYAMGWYRQAPGKERELVAAIDSSGGRTYYADSVKGRFTISRDNAKNTVYLHMNSLKPEDTAVYYCAADASYTEGMDYWGQGTQVTVSS
- polyreactivity (PSR sort gate): high polyreactivity

Sequence: QVQLVESGGGLVQAGGSLRLSCADSGSTFNSNVMGWYRQAPGKERELVAAISRSGGNTYYADSVKGRFTISRDNAKNTVYLQMNSLKPEDTAVYYCNKDGRYPYDYWGQGTQVTVSS
- polyreactivity (PSR sort gate): high polyreactivity

Sequence: QVQLVESGGGLVQAGGSLRLSCAASGLSLQYYAMGWYSQAPGKDRELVAAISSRGVSTYYADSVKGRFTISRDNAKNTVYLQMNSLKPEETAVDYCNARQWRFGFVARGGKYNYWGQGTQVTVSS
- polyreactivity (PSR sort gate): high polyreactivity

Sequence: QVQLVESGGGLVQAGGSLRLSCAASGSTFVYYAMGWYRQAPGKERELVAAMTSSGGRTYYADSVKGRFTISRDNAKNTVYLQMNSLKPEDTAVYYCATPSTRLYSVTSQGYGYWGQGTQVTVSS
- polyreactivity (PSR sort gate): high polyreactivity

Sequence: QVQLVESGGGLVQAGGSLRLSCAASGSTFDPNAMGWYRQAPGKERELVAAITSGGSTYYADSVKGRFTISRDNAKNTVYLQMNSLKPEDTAVYYCNAPLEWGVYAAQNWDDGYWGQGTQVTVSS
- polyreactivity (PSR sort gate): low polyreactivity

Sequence: QVQLVESGGGLVQAGGSLRLSCAASGRIFFYNAMGWSRQAPGKERELVAAISARGDRTYYADSVKGRFTISRDNAKNTVYLQMNSLKPEDTAVYYCAADYYNYRYDYWGQGTQVTVSS
- polyreactivity (PSR sort gate): high polyreactivity

— the nanobody polyreactivity screen of Harvey et al. (2022)
